{
  "source": "patent US20250230210A1",
  "about": "(PARTNER THERAPEUTICS, published 2025)",
  "binders": {"B1": {"name": "VHH-Fc construct (anti-albumin VHH cloned onto a human IgG1 Fc and hinge) (Fc fusion)", "chain": "EVQLLESGGGLVQPGGSLRLSCAASGETLDYYAIGWFRQAPGKEREGVSCIASSGGSTNYADSVKGRFTISRDNSKNTVYLQMNSLKPEDTAVYYCAAAVLECRTVVRGYDYWGQGTQVTVSS", "notes": "also called VH-Fc constructs; not shown: human IgG1 hinge and Fc"}},
  "key": {"human serum albumin [1]": {"biological_target": "T1, human serum albumin (human, UniProt P02768 25-609)", "T1 construct": "also called HSA; Human Albumin", "experiment": "BLI, VHH-Fc on sensor, human albumin in solution, pH 6.5, 30 C, 1:1 model", "description": "(§1) To assess binding to albumin, the VHH were cloned onto a human IgG1 Fc and hinge for ease of purification and analysis. […] The VH-Fc constructs were loaded onto AHC sensors prior to exposure to the monomeric targets human, mouse or rhesus albumin in solution for association and then dissociation in buffer solution (Table 5 and FIGS. 5A-C).\n(§2) To determine the dissociation constant, the binding reaction and dissociation were performed at the described pH. Data acquisition was performed at 30° C.\n(§3) Data (time and response units) was analyzed using the ForteBio Data Analysis Software. The data was fit to a 1:1 binding model to calculate an association (Kon) and dissociation rate (Koff), and KD was calculated using the ratio kd/ka."}, "human serum albumin [2]": {"biological_target": "T1, human serum albumin", "experiment": "BLI, VHH-Fc on sensor, human albumin in solution, pH 6.0, 30 C, 1:1 model", "description": "as §1, §2, §3"}, "human serum albumin [3]": {"biological_target": "T1, human serum albumin", "experiment": "BLI, Octet 384, VHH-Fc on AHC sensor, albumin in solution; VHH-Fc on AHC sensor, monomeric human albumin in solution; pH of Table 5 not stated"}, "human serum albumin [4]": {"biological_target": "T1, human serum albumin", "experiment": "BLI, VHH-Fc on sensor, human albumin in solution, pH 7.0, 30 C, 1:1 model", "description": "as §1, §2, §3"}, "Mouse Albumin": {"biological_target": "T2, Mouse Albumin (mouse, UniProt P07724 25-608)", "T2 construct": "also called murine albumin", "experiment": "BLI, Octet 384, VHH-Fc on AHC sensor, albumin in solution", "description": "(§4) To assess binding, the VHH were cloned onto a human IgG1 Fc and hinge for ease of purification and analysis. […] The VHH-Fc constructs were loaded onto AHC sensors prior to exposure to the monomeric targets, human, mouse or rhesus albumin in solution to determine association and dissociation. In the case of the pH assessment, the binding reaction and dissociation buffer were at the described pH. Data acquisition was performed at 30° C.\nas §1"}, "Rhesus albumin": {"biological_target": "T3, Rhesus albumin (rhesus monkey, UniProt Q28522 17-600)", "T3 construct": "also called rhesus monkey albumin", "experiment": "BLI, Octet 384, VHH-Fc on AHC sensor, albumin in solution", "description": "as §4, §1"}, "human serum albumin [5]": {"biological_target": "T1, human serum albumin", "experiment": "BLI, Octet 384, VHH-Fc on AHC sensor, albumin in solution", "description": "as §4, §1"}, "human serum albumin [6]": {"biological_target": "T1, human serum albumin", "experiment": "BLI, VHH-Fc on sensor, human albumin in solution, pH 5.5, 30 C, 1:1 model", "description": "as §1, §2, §3"}},
  "data": [
    {"binder": "B1", "values": [
      {"measurement": "Kd", "setting": "human serum albumin [1]", "value": 0.0082, "unit": "µM"},
      {"measurement": "Kd", "setting": "human serum albumin [2]", "value": 0.00381, "unit": "µM"},
      {"measurement": "Kd", "setting": "human serum albumin [3]", "value": 0.159, "unit": "µM"},
      {"measurement": "Kd", "setting": "human serum albumin [4]", "value": 0.00663, "unit": "µM"},
      {"measurement": "Kd", "setting": "Mouse Albumin", "value": 0.0104, "unit": "µM"},
      {"measurement": "Response", "setting": "Mouse Albumin", "value": 0.507},
      {"measurement": "Kd", "setting": "Rhesus albumin", "value": 0.0662, "unit": "µM"},
      {"measurement": "Response", "setting": "Rhesus albumin", "value": 0.34},
      {"measurement": "Response", "setting": "human serum albumin [5]", "value": 0.178},
      {"measurement": "Kd", "setting": "human serum albumin [6]", "value": 0.0123, "unit": "µM"}
    ]}
  ]
}
